# Laboratory results taken from the supplement of paper PMC12458215.
# ± gives the uncertainty stated by the source.
# Test system: HEK293T
# Assay: plasma membrane surface immunostaining intensity (anti-HA, deep receptor scanning) (arbitrary fluorescence units); higher = higher plasma membrane expression
sequence,measurement,setting,value
MATELDKIFLILAIAEFIISMLGNVFIGLVNCSEGIKNQKVFSADFILTCLAISTIGQLLVILFDSFLVGLASHLYTTYRLGKTVIMLWHMTNHLTTWLATCLSIFYFFKIAHFPHSLFLWLRWRMNGMIVMLLILSLFLLIFDSLVLEIFIDISLNIIDKSNLTLYLDESKTLYDKLSILKTLLSLTSFIPFSLFLTSLLFLFLSLVRHTRNLKLSSLGSRDSSTEAHRRAMKMVMSFLFLFIVHFFSLQVANWIFFMLWNNKCIKFVMLALNAFPSCHSFILILGNSKLQQTAVRLLWHLRNYTKTPNPLPL [TAS2R42],plasma membrane surface immunostaining intensity,GPCR class: Taste,114 ± 7.7
MEKANETSPVMGFVLLRLSAHPELEKTFFVLILLMYLVILLGNGVLILVTILDSRLHTPMYFFLGNLSFLDICFTTSSVPLVLDSFLTPQETISFSACAVQMALSFAMAGTECLLLSMMAFDRYVAICNPLRYSVIMSKAAYMPMAASSWAIGGAASVVHTSLAIQLPFCGDNVINHFTCEILAVLKLACADISINVISMEVTNVIFLGVPVLFISFSYVFIITTILRIPSAEGRKKVFSTCSAHLTVVIVFYGTLFFMYGKPKSKDSMGADKEDLSDKLIPLFYGVVTPMLNPIIYSLRNKDVKAAVRRLLRPKGFTQ [OR2S2],plasma membrane surface immunostaining intensity,GPCR class: A (Olfactory),120 ± 24
MRWLWPLAVSLAVILAVGLSRVSGGAPLHLGRHRAETQEQQSRSKRGTEDEEAKGVQQYVPEEWAEYPRPIHPAGLQPTKPLVATSPNPGKDGGTPDSGQELRGNLTGAPGQRLQIQNPLYPVTESSYSAYAIMLLALVVFAVGIVGNLSVMCIVWHSYYLKSAWNSILASLALWDFLVLFFCLPIVIFNEITKQRLLGDVSCRAVPFMEVSSLGVTTFSLCALGIDRFHVATSTLPKVRPIERCQSILAKLAVIWVGSMTLAVPELLLWQLAQEPAPTMGTLDSCIMKPSASLPESLYSLVMTYQNARMWWYFGCYFCLPILFTVTCQLVTWRVRGPPGRKSECRASKHEQCESQLNSTVVGLTVVYAFCTLPENVCNIVVAYLSTELTRQTLDLLGLINQFSTFFKGAITPVLLLCICRPLGQAFLDCCCCCCCEECGGASEASAANGSDNKLKTEVSSSIYFHKPRESPPLLPLGTPC [GPR37L1],plasma membrane surface immunostaining intensity,GPCR class: A,148 ± 21
MAWRGAGPSVPGAPGGVGLSLGLLLQLLLLLGPARGFGDEEERRCDPIRISMCQNLGYNVTKMPNLVGHELQTDAELQLTTFTPLIQYGCSSQLQFFLCSVYVPMCTEKINIPIGPCGGMCLSVKRRCEPVLKEFGFAWPESLNCSKFPPQNDHNHMCMEGPGDEEVPLPHKTPIQPGEECHSVGTNSDQYIWVKRSLNCVLKCGYDAGLYSRSAKEFTDIWMAVWASLCFISTAFTVLTFLIDSSRFSYPERPIIFLSMCYNIYSIAYIVRLTVGRERISCDFEEAAEPVLIQEGLKNTGCAIIFLLMYFFGMASSIWWVILTLTWFLAAGLKWGHEAIEMHSSYFHIAAWAIPAVKTIVILIMRLVDADELTGLCYVGNQNLDALTGFVVAPLFTYLVIGTLFIAAGLVALFKIRSNLQKDGTKTDKLERLMVKIGVFSVLYTVPATCVIACYFYEISNWALFRYSADDSNMAVEMLKIFMSLLVGITSGMWIWSAKTLHTWQKCSNRLVNSGKVKREKRGNGWVKPGKGSETVV [FZD4],plasma membrane surface immunostaining intensity,GPCR class: F,5830 ± 270
MKLGSSRAGPGRGSAGLLPGVHELPMGIPAPWGTSPLSFHRKCSLWAPGRPFLTLVLLVSIKQVTGSLLEETTRKWAQYKQACLRDLLKEPSGIFCNGTFDQYVCWPHSSPGNVSVPCPSYLPWWSEESSGRAYRHCLAQGTWQTIENATDIWQDDSECSENHSFKQNVDRYALLSTLQLMYTVGYSFSLISLFLALTLLLFLRKLHCTRNYIHMNLFASFILRTLAVLVKDVVFYNSYSKRPDNENGWMSYLSEMSTSCRSVQVLLHYFVGANYLWLLVEGLYLHTLLEPTVLPERRLWPRYLLLGWAFPVLFVVPWGFARAHLENTGCWTTNGNKKIWWIIRGPMMLCVTVNFFIFLKILKLLISKLKAHQMCFRDYKYRLAKSTLVLIPLLGVHEILFSFITDDQVEGFAKLIRLFIQLTLSSFHGFLVALQYGFANGEVKAELRKYWVRFLLARHSGCRACVLGKDFRFLGKCPKKLSEGDGAEKLRKLQPSLNSGRLLHLAMRGLGELGAQPQQDHARWPRGSSLSECSEGDVTMANTMEEILEESEI [GLP2R],plasma membrane surface immunostaining intensity,GPCR class: B,121 ± 21
MRGFNLLLFWGCCVMHSWEGHIRPTRKPNTKGNNCRDSTLCPAYATCTNTVDSYYCACKQGFLSSNGQNHFKDPGVRCKDIDECSQSPQPCGPNSSCKNLSGRYKCSCLDGFSSPTGNDWVPGKPGNFSCTDINECLTSSVCPEHSDCVNSMGSYSCSCQVGFISRNSTCEDVDECADPRACPEHATCNNTVGNYSCFCNPGFESSSGHLSFQGLKASCEDIDECTEMCPINSTCTNTPGSYFCTCHPGFAPSNGQLNFTDQGVECRDIDECRQDPSTCGPNSICTNALGSYSCGCIAGFHPNPEGSQKDGNFSCQRVLFKCKEDVIPDNKQIQQCQEGTAVKPAYVSFCAQINNIFSVLDKVCENKTTVVSLKNTTESFVPVLKQISTWTKFTKEETSSLATVFLESVESMTLASFWKPSANITPAVRTEYLDIESKVINKECSEENVTLDLVAKGDKMKIGCSTIEESESTETTGVAFVSFVGMESVLNERFFKDHQAPLTTSEIKLKMNSRVVGGIMTGEKKDGFSDPIIYTLENIQPKQKFERPICVSWSTDVKGGRWTSFGCVILEASETYTICSCNQMANLAVIMASGELTMDFSLYIISHVGIIISLVCLVLAIATFLLCRSIRNHNTYLHLHLCVCLLLAKTLFLAGIHKTDNKMGCAIIAGFLHYLFLACFFWMLVEAVILFLMVRNLKVVNYFSSRNIKMLHICAFGYGLPMLVVVISASVQPQGYGMHNRCWLNTETGFIWSFLGPVCTVIVINSLLLTWTLWILRQRLSSVNAEVSTLKDTRLLTFKAFAQLFILGCSWVLGIFQIGPVAGVMAYLFTIINSLQGAFIFLIHCLLNGQVREEYKRWITGKTKPSSQSQTSRILLSSMPSASKTG [ADGRE1],plasma membrane surface immunostaining intensity,GPCR class: B,948 ± 160
MERTNDSTSTEFFLVGLSAHPKLQTVFFVLILWMYLMILLGNGVLISVIIFDSHLHTPMYFFLCNLSFLDVCYTSSSVPLILASFLAVKKKVSFSGCMVQMFISFAMGATECMILGTMALDRYVAICYPLRYPVIMSKGAYVAMAAGSWVTGLVDSVVQTAFAMQLPFCANNVIKHFVCEILAILKLACADISINVISMTGSNLIVLVIPLLVISISYIFIVATILRIPSTEGKHKAFSTCSAHLTVVIIFYGTIFFMYAKPESKASVDSGNEDIIEALISLFYGVMTPMLNPLIYSLRNKDVKAAVKNILCRKNFSDGK [OR13C8],plasma membrane surface immunostaining intensity,GPCR class: A (Olfactory),129 ± 16
MQGLNHTSVSEFILVGFSAFPHLQLMLFLLFLLMYLFTLLGNLLIMATVWSERSLHMPMYLFLCALSITEILYTVAIIPRMLADLLSTQRSIAFLACASQMFFSFSFGFTHSFLLTVMGYDRYVAICHPLRYNVLMSLRGCTCRVGCSWAGGLVMGMVVTSAIFHLAFCGHKEIHHFFCHVPPLLKLACGDDVLVVAKGVGLVCITALLGCFLLILLSYAFIVAAILKIPSAEGRNKAFSTCASHLTVVVVHYGFASVIYLKPKGPQSPEGDTLMGITYTVLTPFLSPIIFSLRNKELKVAMKKTCFTKLFPQNC [OR10H5],plasma membrane surface immunostaining intensity,GPCR class: A (Olfactory),129 ± 21
